Assay [1] has as its target T1, Biotinylated SARS-CoV-2 S1 protein (ACRO, S1N-C82E8) (UniProt P0DTC2 16-685). The experiment in a line: BLI. Background: In BLI a coated tip is dipped into the sample, and binding shifts an interference pattern.
Assay [2] deals with T1, Biotinylated SARS-CoV-2 S1 protein …. The experiment in a line: BLI. The source holds these as a separate data set.

Where two headings read alike, the source gives them in different places. Bounds are passed on as bounds.

This is an account of results in patent US20230374114A1 (published 2023).

B1: S1-R3-T1-C4 (Ab_8) (scFv, V domains shown)
VH: QVQLVQSGAEVKKPGSSVKVSCKASGGTFSSYAISWLRQAPGQGLEWMGWINPNSGGTNYAQKFQGRVTMTRDTSISTAYMELSRLRSDDTAVYYCARGSGGYYLGWGQGTLVTVSS
VL: QPGLTQPPSVSKGLRQTATLTCTGNSNNVGNQGAAWLQQHQGHPPKLLSYMNNNRPPGISERFSASRSGNTASLTITGLQPEDEADYYCSAWDSSLSRWVFGGGTKLSVL
Broadly, the Kd is the concentration at which binding is half-saturated. Regarding B1, the Kd in assay [1] worked out at 325 nM.

B2: RBD-R3-T1-H3 (Ab_2) (scFv, V domains shown)
VH: EVQLVQSGAEVKKPGSSVKVSCKTSGYTFTTSGISWVRQAPGQGLEWMGWISAYNGNTNYAQKLQGRVTMTTDTSTSTAYMELRSLRSDDTAVYYCARDFHLYYGMDVWGKGTLVTVSS
VL: QSALTQPPSASGSPGQSVTISCTGTSSDVGAYNYVSWYQQHPGKAPKLLIYDVTKRPPGVPDRFSGSKSGNTASLTVSGLQAEDEADYYCAVWDDGLNGRVVFGGGTKLTVL
For the molecule B2, the Kd in assay [1] is less than 0.001 nM.

B3: S1-RBD-R3-E1-E8 Ab (Ab 37) (scFv, V domains shown)
VH: QVQLVQSGAEVKKPGASVKVSCKASGYTFTSYGISWVRQAPGQGLEWMGWISTYNGNTNYAQKLQGRVTMTTDTSTSTAYMEVRSLRSDDTAVYYCARDVFGHFDYWGQGTLVTVSS
VL: NFMLTQPHSVSESPGKTVLISCTRSSGNIATNYVQWYQQRPGSAPTTVIYEDNQRPSGVPDRFSGSIDSSSNSASLTISGLKTEDEADYYCKSYDDGNHVFGGGTKLTVL
For B3, in assay [1], the Kd amounted to 0.907 nM.

B4: Ab_18 (scFv, V domains shown)
VH: EVQLVQSGGGVVQPGRSLRVSCAASGFSFSRYGMHWVRQAPGKGLEWVAFIRHDGSKKYYADSVEGRFTISRDNSRNTVSLEMNSLRGEDTAVYYCAKDGRLEAALDDWGQGTLVTVSS
VL: NFMLTQPHSMSGSAGKTVTVSCIRSSGSIANNFVQWYQQRPGSAPTTVIYEDNQRPSGVPDRFSGSIDSSSNSASLTISGLKTEDEADYYCQSYDSSNLVFGGGTRLTVL
As for B4, the Kd in assay [2] and in assay [1] was 0.121 nM throughout.

B5: Ab 14 scFv-Fc (scFv, V domains shown)
VH: QVQLQQSGPGLVKPSQTLSLTCAISGDSVSSNSAAWNWIRQSPARGLEWLGRTYYRSRWYNDYAISMKSRITINPDTSKNQFSLQLESVTPEDTAVYYCAREIRGFDYWGQGTLVTVSS
VL: QSVLTQPPSASGSPGQSVTISCTGTSSDVGAYNFVSWYQHHPGKAPKLIIYDFNKRPSGVPDRFSGSKSGNTASLTVSGLQADDEADYYCSSYAGSNNFDVVFGGGTKLTVL
With B5, the dissociation constant Kd in assay [2] and in assay [1] was 0.594 nM in each case.

B6: Ab_16 (scFv, V domains shown)
VH: QVQLVQSGGGVVQPGRSLRLSCAASGFTFSNYGMHWVRQAPGKGLEWVALIWERGSKKDYADSVKGRFTVSRDNSKNTLYLQMNSLRPEDTAVYFCAREGISMTGAEYFQHWGQGTLVTVSS
VL: QSVLTQPPSVSGSPGQRVTMSCTGSSSNIGAGYDVHWYQQVPGAAPRLLIYGTNNRPSGVPDRFSGSKSGTSASLTITGLQAEDEADYYCQSYDNSLTDPYVFGTGTKVTVL
Regarding B6, the Kd in assay [2] and in assay [1] was 2.18 nM throughout.

B7: Ab 21 (scFv, V domains shown)
VH: QVQLVQSGGGLVQPGGSLRLSCATSGFTFDDYAMHWVRQAPGKGLEWVSGISWNSGSIGYVDSVKGRFTISRDNRNNKVYLQMNNLRAEDTAVYYCARDWWGSIDHWGLGTLVTVSS
VL: QSALTQPRSVSGSPGQSVTISCTGTSSDVGGYDYVSWYQQHPGKAPKLIIYDVSKRPSGVPDRFSGSKSGNTASLTVSGLQAEDEADYYCSSYTSSSPVVFGGGTKLTVL
Turning to B7, the Kd in assay [2] and in assay [1] was 1.28 nM each time.

B8: Ab 26 scFv-Fc (scFv, V domains shown)
VH: QVQLVQSGGGLVQPGRSLRLSCAASGFTFDDYAMHWVRQVPGKGLEWVSGIDWNSGVIGYADSVKGRFTISRDNAKNSLYLQMNSLRAEDTALYYCAKDAYSYGFLGAFDIWGQGTMVTVSS
VL: LPVLTQPPSVSVAPGQTASITCGGDNIRTKGVHWYQQKPGQAPLLVIYYASDRPSGIPERFSGSSSGNTATLTISRVEAGDEADYYCQVWDSSSDLVVFGGGTTLTVL
For B8, the Kd in assay [2] and in assay [1] was 0.0875 nM throughout.

B9: Ab 38 (scFv, V domains shown)
VH: QVTLKESGPTLVKPTQTLTLTCTFSGFSLTTSGVSVGWIRQPPGKALEWLALIHWDDDKRYSPSLRSRLTITRDTSKNQVVLTVTDMDPADTGTYYCASFIMTVYAEYFEDWGQGTLVTVSS
VL: EIVLTQSPATLSVSPGERATLSCRASQSVSSNLAWYQQKPGQAPRLLMYDVSTRATGIPARFSGSGSGTEFSLTISSLQSEDFAVYYCQQRGAWPLTFGGGTKVEIK
In the case of B9, in assay [1], the Kd turned out to be 0.22 nM.

B10: Ab 19 scFv-Fc (scFv, V domains shown)
VH: EVQLVESGAEVKKPGESLKISCKGSGYSFTSYWIGWVRQMPGKGLEWMGIIYPGDSDTRYSPSFQGQVTISADKSISTAYLQWSSLKASDTAMYYCARRGDLDAFDIWGQGTMVTVSS
VL: QPGLTQPPAASGTPGQRVTVSCSGASANIGSNAVSWFKQFPETAPRLLISGNTHRPSGVPDRVSGSKSGTSASLTISGLQSDDEADYYCAAWDDSLNGYVFGSGTKVTVL
B10: the Kd in assay [2] and in assay [1] was 0.13 nM each time.

B11: RBD-R3-E1-B3 Ab (Ab_32) (scFv, V domains shown)
VH: QVQLVQSGAEVKKPGESLKISCKGSGYSFTSYWIGWVRQMPGKGLEWMGIIYPGDSDTRYSPSFQGQVTISADKSISTAYLQWSSLKASDTAMYYCARGWQWHDYWGQGTLVTVSS
VL: QTVVTQEPAVSVALGQTVRITCQGDSLRSYYASWYQQKPGQAPVLVVYDKDKRPSGIPDRFSGSTSGNTASLTITGAQAEDEADYYCNSRDRSDNHVVFGGGTKLTVL
Molecule B11 came in with a Kd in assay [1] of 0.168 nM.

B12: Ab 15 scFv-Fc (scFv, V domains shown)
VH: QVQLVQSGGGLVKPGRSLRLSCTASGFTFGDYAMSWFRQAPGKGLEWVGFIRSKAYGGTTGYAASVKGRFTISRDDSKSIAYLQMNSLKTEDTAVYYCTTADDDMDVWGKGTTVTVSS
VL: NFMLTQPHSVSESPGKTVTISCTRSSGTIASNYVQWYQQRPGSAPTTVIYEDNQRPSGVPDRFSGSIDRSSNSASLTISGLTPDDEADYYCQSYDTSNHYVFGTGTKVTVL
Take B12: the Kd in assay [2] and in assay [1] was 0.033 nM each time.

B13: Ab_13 (scFv, V domains shown)
VH: QVTLKESGPKLVKPTQTLTLTCTFSGFSLSTSGVGVGWIRQPPGKALEWLALIYWDDDKRYSPSLKSRLTIAKDTSKYQVVLTMTNMDPVDTATYYCARISGSGYFYPFDIWGQGTMVTVSA
VL: NFMLTQPHSVSESPGKTVTISCTRSSGSIASNYVQWYQQRPGSAPTTVIYEDNQRPSGVPDRFSGSIDSSSNSASLTISGLKTEDEADYYCQSYDSSNLWVFGGGTKLTVL
In the case of B13, the Kd in assay [2] and in assay [1] was 1.14 nM in each case.

B14: S1-RBD-R3-T1-D7 Ab (Ab_34) (scFv, V domains shown)
VH: QVQLVQSGVEVKKPGESLKISCKGSGYSFTSYWIGWVRQMPGKGLEWMGIIYPGDSDTRYSPSFQGQVTISADKSISTAYLQWSSLKASDTAMYYCARTTYSYGSFDYWGQGTLVTVSS
VL: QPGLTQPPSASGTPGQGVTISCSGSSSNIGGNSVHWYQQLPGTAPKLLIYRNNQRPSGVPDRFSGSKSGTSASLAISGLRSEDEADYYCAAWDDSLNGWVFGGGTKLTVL
In the case of B14, the Kd in assay [1] was 0.184 nM.

B15: Ab 25 scFv-Fc (scFv, V domains shown)
VH: QVQLVQSGGGLVQPGGSLRLSCAASGFTFSSYWMSWVRQAPGKGLEWVANIKQDGSEKYYVDSVKGRFTISRDNAKNSLYLQMNSLRAEDTAVYYCARGFYYYGAFDIWGQGTTVTVSS
VL: NFMLTQPHSVSESPGKTVTISCTGSSGSIASNYVQWYQQRPGSAPTTVIYEDNQRPSGVPDRFSGSIGSSSNSASLTISGLKTEDEADYYCQSYDSSNHWVFGGGTKLTVL
B15: the Kd in assay [2] and in assay [1] was 10.1 nM each time.

B16: S1-RBD-R3-T1-B12 Ab (Ab_31) (scFv, V domains shown)
VH: QVQLVQSGAEVKKPGSSVKVSCKASGGTFSSYTISWVRQAPGQGLEWMGGIIPILGTPNYAQKFQDRVAITADKSTSTAYMELSSLRSEDTAVYYCAVGSGWYSGFDYWGQGTLVTVSS
VL: NFMLTQPHSVSESPGKTVTISCTGSSGSIASNYVQWYQQRPGSAPTTVIYEDSQRPSGVPDRFSGSIDSSSNSASLTISGLKTEDEADYYCQSFHNSNPVIFGGGTKLTVL
B16 showed a Kd in assay [1] of 2040 nM.

B17: Ab 20 (scFv, V domains shown)
VH: QVQLVQSGGGSVKPGGSLRLSCAASGYRLSDYYMHWVRQAPGKGLEWVANIKQDGSEKYYVDSVKGRFTISRDNAKNSLYLQMNSLRAEDTAVYYCARVRGWSRGYFDYWGQGTLVTVSS
VL: NFMLTQPHSVSESPGKTVTISCTGSSGSIASNYVQWYQQRPGSAPTTVIYEDNQRPSGVPDRFSGSIDSSSNSASLLISGLKTEDEADYYCQSYDSSNHWVFGGGTKLTVL
As to B17, the Kd in assay [2] and in assay [1] was 5.01 nM throughout.

B18: Ab 30 scFv-Fc (RBD-R3-E1-A5) (scFv, V domains shown)
VH: QVQLVQSGGGVVQPGKSLRLSCTASGFTFSDFPIHWVRQAPGKGLEWVGVISYDGNIKYYGDSVKGRFTISRDNAKNSLYLQMNSLRVEDTAVYYCARGGSSFDIWGQGTTVTVSS
VL: SYELTQPPSVSEAPRQRVTISCSGSTSNIGNNAVSWYQHLPGKAPKLLIYYNERLPSGVSDRFSGSKSGTSASLAISGLRSEDEADYYCAAWDDSLSGHVVFGGGTKLTVL
Molecule B18 had a Kd in assay [1] of 0.314 nM.

B19: RBD-R3-E1-F5 Ab (Ab_36) (scFv, V domains shown)
VH: QVQLQQSGPGLVKPSQTLSLTCAIFGDSVTSNSAAWNWIRQSPSRGLEWLGRTYYSSKWYNDYAVSVKSRVTINADTSKNQLSLQLNSVTPEDTAVYYCARGWLRLSFDPWGQGTLVTVSS
VL: NFMLTQPHSVSESPGKTVTISCTGSSGSIASNYVQWLQQRLGSAPTTVIYEDNQRPSGVPDRFSGSIDSSSNSASLTISGLKTEDEADYYCQSYDPNNHGVVFGGGTKLTVL
In assay [1], B19 had a Kd of 0.0306 nM.

B20: S1-RBD-R3-T1-C7 Ab (Ab 29) (scFv, V domains shown)
VH: QVQLQQSGPGLVKPSQTLSLTCAISGDSVSSYSDAWNWIRQSPSRGLEWLGRTYYRSKWYNDYAVSVKSRITINPDTSKNQFSLQLSSVTPEDTAVYYCAREIVATTPFRNYYYGMDVWGQGTTVTVSS
VL: NFMLTQPHSVSESPGNTVTISCTRTSGSIASNYVQWYQQRPGSSPTTVIFQDKLRPSGVPDRFSGSIDSSSNSASLTISGLKTEDEADYYCQSYDSSSLWVFGGGTKLTVL
On to B20, for which, in assay [1], the Kd was less than 0.001 nM.
